B1: Acid stress protein IbaG (Escherichia coli (strain K12)), P0A9W6 (parent)
chain: MENNEIQSVLMNALSLQEVHVSGDGSHFQVIAVGELFDGMSRVKKQQTVYGPLMEYIADNRIHAVSIKAYTPAEWARDRKLNGF
partner: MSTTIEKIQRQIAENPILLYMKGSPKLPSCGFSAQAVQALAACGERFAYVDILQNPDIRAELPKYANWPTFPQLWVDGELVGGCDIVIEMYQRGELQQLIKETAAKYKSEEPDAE

Variants of: B1
Settings: with glrx4_ecoli grxD

| Variant | effect of a mutation on the interaction |
| --- | --- |
| MENNEIQSVLMNALSLQEVHVSGDGSCFQVIAVGELFDGMSRVKKQQTVYGPLMEYIADNRIHAVSIKAYTPAEWARDRKLNGF [H27C] | with no effect |
| MENNEIQSVLMNALSLQEVHVSGDGSAFQVIAVGELFDGMSRVKKQQTVYGPLMEYIADNRIHAVSIKAYTPAEWARDRKLNGF [H27A] | with no effect |
| MENNEIQSVLMNALSLQEVHVSGDGAHFQVIAVGELFDGMSRVKKQQTVYGPLMEYIADNRIHAVSIKAYTPAEWARDRKLNGF [S26A] | with no effect |

Continued, values first:

| effect of a mutation on the interaction | Variant |
| --- | --- |
| with no effect | MENNEIQSVLMNALSLQEVHVSGDGSHFQVIAVGELFDGMSRVKKQQTVYGPLMEYIADNRIAAVSIKAYTPAEWARDRKLNGF [H63A] |
| with no effect | MENNEIQSVLMNALSLQEVHVSGDGSHFQVIAVGELFDGMSRVKKQQTVYGPLMEYIADNRICAVSIKAYTPAEWARDRKLNGF [H63C] |

— IntAct's records for PubMed 27951647
